Measurements: publication PMC6849348, “Theranostic Application of a Novel G-Quadruplex-Forming DNA Aptamer Targeting Malate Synthase of Mycobacterium tuberculosis”

Key:
[1] = target: T1, malate synthase (MS, GlcB) (Mycobacterium tuberculosis, UniProt P9WK17 1-741); assay: ALISA; settings: protein: recombinant; tags: C-terminal His6
[2] = target: T1, malate synthase (MS, GlcB); assay: enzyme inhibition; glyoxylate, acetyl-CoA, 5 mM Mg2+; settings: protein: recombinant, tags: C-terminal His6
[3] = target: T1, malate synthase (MS, GlcB); assay: SPR; settings: protein: recombinant, tags: C-terminal His6
[4] = target: T1, malate synthase (MS, GlcB); assay: enzyme inhibition (mixed); glyoxylate, acetyl-CoA, 5 mM Mg2+; settings: protein: recombinant, tags: C-terminal His6
[5] = G4 parallel (CD, NMR), modeled as tetramer of 4 strands

T1 sequence (P9WK17 whole entry): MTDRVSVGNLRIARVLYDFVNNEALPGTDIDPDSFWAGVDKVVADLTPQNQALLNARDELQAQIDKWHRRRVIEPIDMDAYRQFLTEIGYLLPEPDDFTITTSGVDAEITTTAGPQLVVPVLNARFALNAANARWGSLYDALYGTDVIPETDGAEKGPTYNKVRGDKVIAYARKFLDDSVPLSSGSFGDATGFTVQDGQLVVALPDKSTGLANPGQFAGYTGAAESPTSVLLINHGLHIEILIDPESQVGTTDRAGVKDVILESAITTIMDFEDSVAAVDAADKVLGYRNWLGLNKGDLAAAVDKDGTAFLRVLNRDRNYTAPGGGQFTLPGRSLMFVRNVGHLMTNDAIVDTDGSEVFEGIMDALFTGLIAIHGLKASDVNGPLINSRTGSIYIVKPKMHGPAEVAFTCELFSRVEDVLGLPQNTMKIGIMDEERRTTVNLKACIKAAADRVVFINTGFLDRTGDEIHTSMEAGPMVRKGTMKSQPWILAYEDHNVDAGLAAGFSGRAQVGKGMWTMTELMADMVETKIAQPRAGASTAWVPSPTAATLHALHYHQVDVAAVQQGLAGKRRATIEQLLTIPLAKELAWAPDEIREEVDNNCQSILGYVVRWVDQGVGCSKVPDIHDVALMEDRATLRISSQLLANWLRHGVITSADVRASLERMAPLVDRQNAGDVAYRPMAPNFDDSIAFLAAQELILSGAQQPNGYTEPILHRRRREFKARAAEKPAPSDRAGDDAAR

Binder: GGGGTGGTGG (structured_DNA) [MS10-Trunc dT3]
- binding result [1]: binds

Binder: GGTGGTGGTGG (structured_DNA) [MS10-Trunc]
- IC50 [2, 5]: 251 nM
- Kd [3, 5]: 0.019 nM
- Ki [4, 5]: 230 nM

Binder: GGTGTGTTGACTGAGGGGGTGGGGTGGGTGGTGGTGGATATAGC (structured_DNA) [MS10]
- IC50 ([2]; G4, parallel (CD)): 276 nM
- Kd ([3]; G4, parallel (CD)): 12 nM
- Ki ([4]; G4, parallel (CD)): 270 nM

Binder: GGTGGTGGGG (structured_DNA) [MS10-Trunc dT9]
- binding result [1]: binds
